Assay: western blot, endogenous PD-L1 in RBMS1-depleted MDA-MB-231, ±IFN-γ
Conditions: glycan lost; control: untreated

PD-L1 (programmed death ligand 1; B7-H1, CD274): tunicamycin
other: dependence of PD-L1 protein level on RBMS1: abolishes

Source: publication PMC9613699
